Data taken from the supplement of paper PMC10567573.

B1: ZNF449 (parent)
chain: EPHKCPECGKRFLRSSDLYRHQRL

Variants of: B1
Test: protein stability index of a GFP-peptide fusion (GPS, HEK-293T) (PSI 1-6); higher = more stable
Details: c terminus: a fixed tail appended
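Further: lentivirally expressed fusions sorted by FACS into six bins by GFP to DsRed ratio, PSI derived from sequencing read proportions per bin multiplied by bin number.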

Protein stability index: each site, then its substitutions
E7: R 3.17; H 3.65; Y 3.66; V 3.44; C 4.37; G 3.74; S 4.11; Q 3.62; K 4.14; M 3.65; T 3.82; F 3.25; P 2.21; L 3.51; A 3.29; W 4.05; N 3.81; I 3.3; D 4.12
C5: S 3.44; I 3.26; D 3.69; T 2.79; F 2.5; H 3.19; Q 3.6; N 3.41; W 3.01; M 3.06; G 2.63; K 4; Y 3.14; P 3.07; R 3.14; A 3.69; E 3.56; V 2.87; L 3.3
G9: K 2.61; D 2.99; L 2.3; E 3.15; R 2.31; Q 3.16; M 2.72; C 2.18; P 2.82; S 3.36; A 2.24; I 2.65; F 2.52; H 3.08; N 3.14
P2: D 4; R 3.54; I 3.18; W 3.22; L 3.63; H 3.95; Y 3.21; N 3.37; K 3.57; C 3.58; S 4.41; M 3.38; T 3.52; E 3.42; V 3.02; A 3.5; G 3.81; Q 3.53; F 3.17
P6: Y 3.53; R 3.1; Q 3.68; N 4.17; I 3.23; H 3.91; T 3.52; F 3.22; L 3.38; C 3.75; M 3.88; W 3.31; V 3.57; S 3.69; K 3.62; D 4.46; A 3.75; G 3.5; E 4.19
C8: L 3.01; K 3.75; R 3.08; I 3.06; W 2.64; M 3.05; D 4.03; S 3.37; Q 3.43; N 3.16; H 3.26; V 3.25; Y 3.24; T 3.36; F 2.72; E 4.02; G 3.3; P 3.51; A 3.24
K4: A 4.5; S 4.13; P 3.42; V 4.7; Y 4.47; T 4.46; R 3.71; C 3.86; N 4.09; I 4.71; M 4.7; W 3.65; E 4.73; D 4.36; H 4.09; G 3.68; L 4.49; F 3.98; Q 4.57
H3: S 2.97; Q 3.31; N 4.49; R 3.29; G 3.02; K 3.23; A 3.25; P 3.33; T 3.9; Y 4.7; W 4; M 3.79; V 3.72; D 3.23; I 4.1; L 4.89; C 3.58; F 4.09; E 2.99
E1: Q 3.12; V 2.67; F 2.93; D 4.06; S 2.73; M 2.89; W 3.2; Y 3.3; G 3.13; T 2.6; A 2.84; H 3.45; R 3.37; I 2.6; L 2.81; K 2.79; P 3.19; N 2.83; C 2.14
